Data as given in article doi:10.1101/2022.01.11.475947.

Target: Fusion protein of Nipah virus (F-clamp) (Nipah virus)
Assay: SEC

Fusion protein of Nipah virus (F-clamp)
stoichiometry N: 3
